Drawing on US20260234738A1, this text covers Relative neutralization for one substance.

The test has as its target SARS-CoV-2 spike protein variant Y483A on VSV pseudoparticles (SARS-CoV-2) (UniProt P0DTC2). Nature of the test: cell-based or functional assay.

mAb10987 (antibody) yielded a Relative neutralization at 5 µg/ml of 99%.
